Results taken from US11667688B2, “Glucagon derivative and a composition comprising a long acting conjugate of the same” (HANMI PHARM. CO., LTD., priority 2015, dated 2023).
Square brackets hold non-standard residues; d marks the D form. Ends that are not written are not given here. Aib = CC(C)(N)C(=O)O

Assays:
[1] = when taken for one year; cited from earlier work
human glucagon receptors = target: T1, human glucagon receptors (Homo sapiens, UniProt P47871); test: cAMP activity of glucagon derivatives in CHO cell line transfected with human glucagon receptor (LANCE cAMP kit); format: cell-based; settings: cAMP EC50 compared with that of native glucagon; CHO cells with human glucagon receptor
T1 construct: a region corresponding to Open Reading Frame (ORF) in the cDNA; expressed in transfected cells
Protocol: PCR was performed using a region corresponding to Open Reading Frame (ORF) in the cDNA (OriGene Technologies, Inc., USA) of human glucagon receptor gene as a template along with the following forward and reverse primers (SEQ ID NOS: 47 and 48, respectively), which include each of the EcoRI and XhoI restriction sites.
The PCR product was cloned into a known animal cell expression vector, x0GC/dhfr, to prepare a recombinant vector x0GC/GCGR.
CHO DG44 cell line cultured in DMEM/F12 (10% FBS) medium was transfected with the recombinant vector x0GC/GCGR using LIPOFECTAMINE®, and cultured in a selection medium containing G418 (1 mg/mL) and methotraxate (10 nM).
Specifically, the transfected cell line was subcultured 3 to 4 times a week, aliquoted into a 384-well plate in an amount of 6×10^3 cell lines/well, and cultured for 24 hours. Native glucagon and glucagon derivatives were suspended in Hank's balanced salt solution (HBSS) buffer containing 0.5 mM of 3-isobutyl-1-methylxanthine (IBMX), 0.1% bovine serum albumin (BSA), and 5 mM 4-(2-hydroxyethyl)-1-piperazineethanesulfonic acid (HEPES) with the culture cells, at concentrations of 200 nM and 1600 nM, respectively, continuously subjected into a 4-fold dilution 10 times, applied to a cAMP assay kit (LANCE cAMP 384 kit, PerkinElmer), and added to the cultured cells, and their fluorescence value was measured.

T1 sequence (P47871 26-477): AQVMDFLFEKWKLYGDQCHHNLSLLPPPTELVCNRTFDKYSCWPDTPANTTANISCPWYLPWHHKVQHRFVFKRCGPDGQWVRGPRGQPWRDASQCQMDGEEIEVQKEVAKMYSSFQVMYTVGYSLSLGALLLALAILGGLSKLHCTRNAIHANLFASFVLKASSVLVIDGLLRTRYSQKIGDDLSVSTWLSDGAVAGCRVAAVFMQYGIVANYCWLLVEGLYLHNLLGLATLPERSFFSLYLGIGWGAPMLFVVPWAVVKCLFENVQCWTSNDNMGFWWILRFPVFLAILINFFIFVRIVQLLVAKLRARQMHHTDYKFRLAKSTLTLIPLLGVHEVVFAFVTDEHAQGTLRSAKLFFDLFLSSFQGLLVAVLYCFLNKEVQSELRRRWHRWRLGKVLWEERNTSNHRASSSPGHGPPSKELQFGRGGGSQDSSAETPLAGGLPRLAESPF

Row | In vitro Activity (Relative Activity of SEQ ID NO: 1, %) (human glucagon receptors) | Molecule | weight loss [1]
1 | – | CCCCCCCCCCC[C@@H](C[C@@H]1OC(=O)[C@H]1CCCCCC)OC(=O)[C@H](CC(C)C)NC=O [ORLISTAT] | about 4 kg
2 | 0.3% | HSQGTFTSDYSKYLDSCEAQDFVQWLMNT (glucagon derivative) [SEQ ID NO: 5] | –
3 | 1.6% | YXQGTFTSDCSKYLDSRRAQDFVQWLMNT (Y[Aib]QGTFTSDCSKYLDSRRAQDFVQWLMNT) [SEQ ID NO: 43, glucagon derivative, X = Aib] | –
4 | <0.1% | HSQGTFTSDYSKYLDSCDAQDFVQWLMNT (glucagon derivative) [SEQ ID NO: 4] | –
